Measured values from publication PMC7154858, “Transcriptional and Biochemical Characterization of Cytosolic Pyruvate Kinases in Arabidopsis thaliana” (Plants, 2020).

Tests used:
[1] = target: T1, cytosolic pyruvate kinase 2 (cPK2, At5g56350) (Arabidopsis thaliana) (UniProt Q9FM97)
T1 sequence: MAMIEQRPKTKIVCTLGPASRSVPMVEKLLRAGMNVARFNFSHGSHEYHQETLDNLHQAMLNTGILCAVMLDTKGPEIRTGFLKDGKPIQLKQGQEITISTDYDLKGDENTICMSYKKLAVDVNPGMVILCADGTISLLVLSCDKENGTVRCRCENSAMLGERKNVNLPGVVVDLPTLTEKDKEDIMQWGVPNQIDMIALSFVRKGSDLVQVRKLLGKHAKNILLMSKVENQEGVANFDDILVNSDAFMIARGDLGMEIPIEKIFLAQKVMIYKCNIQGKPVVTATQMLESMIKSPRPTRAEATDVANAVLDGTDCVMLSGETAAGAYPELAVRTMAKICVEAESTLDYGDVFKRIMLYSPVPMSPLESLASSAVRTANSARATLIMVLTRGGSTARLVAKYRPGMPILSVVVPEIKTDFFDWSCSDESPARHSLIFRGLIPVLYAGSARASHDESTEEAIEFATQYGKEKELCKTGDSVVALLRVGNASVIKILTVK

[2] = target: T2, cytosolic pyruvate kinase 4 (cPK4, At2g36580) (Arabidopsis thaliana) (UniProt Q9SJQ0)
T2 sequence: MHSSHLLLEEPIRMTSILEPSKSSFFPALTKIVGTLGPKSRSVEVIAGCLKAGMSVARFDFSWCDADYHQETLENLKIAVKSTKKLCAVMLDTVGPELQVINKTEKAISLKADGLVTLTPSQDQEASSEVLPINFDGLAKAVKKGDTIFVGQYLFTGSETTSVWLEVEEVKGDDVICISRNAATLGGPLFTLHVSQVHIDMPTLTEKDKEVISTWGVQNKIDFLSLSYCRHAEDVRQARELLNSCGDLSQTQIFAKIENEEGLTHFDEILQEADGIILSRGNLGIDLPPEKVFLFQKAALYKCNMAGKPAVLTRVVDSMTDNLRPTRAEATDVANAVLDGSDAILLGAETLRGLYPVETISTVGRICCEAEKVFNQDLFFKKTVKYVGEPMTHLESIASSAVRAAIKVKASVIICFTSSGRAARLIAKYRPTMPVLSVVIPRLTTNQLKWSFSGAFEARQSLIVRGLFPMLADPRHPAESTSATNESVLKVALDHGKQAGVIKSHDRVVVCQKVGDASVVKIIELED

purified protein [3] = substrate: Nc1ncnc2c1ncn2[C@@H]1O[C@H](COP(=O)(O)OP(=O)(O)O)[C@@H](O)[C@H]1O; experiment: purified protein; format: biochemical, Arabidopsis thaliana; details: co-substrate PEP, 10 mM MgCl2, 50 mM KCl, 5% PEG 200, pH 7.5, 25 °C
purified protein [4] = substrate: C=C(OP(=O)(O)O)C(=O)O; experiment: purified protein; format: biochemical, Arabidopsis thaliana; details: co-substrate ADP, 10 mM MgCl2, 50 mM KCl, 5% PEG 200, pH 7.5, 25 °C

Molecule	Km (purified protein [3])	kcat (purified protein [3])	Km (purified protein [4])	kcat (purified protein [4])	other results
cytosolic pyruvate kinase 3 (cPK3) (from UniProt Q9FFP6 1-510) (enzyme)	–	–	–	–	specific pyruvate kinase activity (LDH-coupled assay, substrate saturating conditions) of a mixture of equal ratios of cPK2 and cPK3, compared to the single enzymes [1]: 20 % increase; specific pyruvate kinase activity (LDH-coupled assay, substrate saturating conditions) of a mixture of equal ratios of cPK4 and cPK3, compared to the single enzymes [2]: 20 % increase
cytosolic pyruvate kinase 1 (cPK1, At5g08570) (enzyme) MSNIDIEGILKELPNDGRIPKTKIVCTLGPASRTVSMIEKLLKAGMNVARFNFSHGSHEYHQETLDNLRSAMHNTGILAAVMLDTKGPEIRTGFLKDGNPIQLKEGQEITITTDYDIQGDESTISMSYKKLPLDVKPGNTILCADGSISLAVLSCDPESGTVRCRCENSAMLGERKNVNLPGVVVDLPTLTDKDIEDILGWGVPNSIDMIALSFVRKGSDLVNVRKVLGSHAKSIMLMSKVENQEGVINFDEILRETDAFMVARGDLGMEIPIEKIFLAQKLMIYKCNLAGKPVVTATQMLESMIKSPRPTRAEATDVANAVLDGTDCVMLSGESAAGAYPEIAVKVMAKICIEAESSLDYNTIFKEMIRATPLPMSPLESLASSAVRTANKARAKLIIVLTRGGSTANLVAKYRPAVPILSVVVPVMTTDSFDWSCSDESPARHSLIYRGLIPMLAEGSAKATDSEATEVIIEAALKSATQRGLCNRGDAIVALHRIGAASVIKICVVK	–	–	–	–	specific pyruvate kinase activity (LDH-coupled assay, substrate saturating conditions) of a mixture of equal ratios of cPK1 and cPK2, compared to cPK2 alone [1]: 70 % increase; specific pyruvate kinase activity (LDH-coupled assay, substrate saturating conditions) of a mixture of equal ratios of cPK1 and cPK4, normalised to cPK4 alone [2]: 75 % increase
cytosolic pyruvate kinase 5 (cPK5, At3g52990) (enzyme) MHSSHLLLEEPIRMASILEPSKSSFFPALTKIVGTLGPKSRSVEALSGCLKAGMSVARFDFSWGDADYHQETLDNLKVAVRSTKKLCAVMLDTVGPELQVINKSEKAITLKADGLVTLTPNQDQEASSEVLPINFNGLAKAVKKGDTIFVGQYLFTGSETTSVWLEVDEVKGDDVICLSRNAATLAGSLFTLHSSQVHIDLPTLTEKDKEVISTWGVQNKIDFLSLSYCRHAEDVRQTREMLKKLGDLSQTQIFAKIENVEGLTHFDEILQEADGIILSRGNLGIDLPPEKVFLFQKAALYKCNMAGKPAVLTRVVDSMTDNLRPTRAEATDVANAVLDGSDAILLGAETLRGLYPVETISTVGRICAEAEKVFNQDLYFKKTVKYVGEPMTHLESIASSAVRAAIKVKASVIICFTSSGRAARLIAKYRPTMPVISVVIPRVKTNQLKWSFSGAFEARQSLIVRGLFPMLADPRHPAESTSATNESVLKVALDHGKHAGVIKSHDRVVVCQKVGDASVVKIIELED	–	–	–	–	specific pyruvate kinase activity (LDH-coupled assay, substrate saturating conditions) of a batch with equal ratios of cPK4 and cPK5, compared to cPK4 alone [2]: 180 % increase
cPK1 (Arabidopsis thaliana) (protein, full-length cDNA in pET16b, N-terminal His tag (6x in Results, 5x in Methods), E. coli BLR21, Ni-NTA; primer begins MSNIDIEG) MSNIDIEGILKELPNDGRIPKTKIVCTLGPASRTVSMIEKLLKAGMNVARFNFSHGSHEYHQETLDNLRSAMHNTGILAAVMLDTKGPEIRTGFLKDGNPIQLKEGQEITITTDYDIQGDESTISMSYKKLPLDVKPGNTILCADGSISLAVLSCDPESGTVRCRCENSAMLGERKNVNLPGVVVDLPTLTDKDIEDILGWGVPNSIDMIALSFVRKGSDLVNVRKVLGSHAKSIMLMSKVENQEGVINFDEILRETDAFMVARGDLGMEIPIEKIFLAQKLMIYKCNLAGKPVVTATQMLESMIKSPRPTRAEATDVANAVLDGTDCVMLSGESAAGAYPEIAVKVMAKICIEAESSLDYNTIFKEMIRATPLPMSPLESLASSAVRTANKARAKLIIVLTRGGSTANLVAKYRPAVPILSVVVPVMTTDSFDWSCSDESPARHSLIYRGLIPMLAEGSAKATDSEATEVIIEAALKSATQRGLCNRGDAIVALHRIGAASVIKICVVK	150 µM	1.53 s⁻¹	60 µM	1.53 s⁻¹	–
cPK2 (Arabidopsis thaliana) (protein, full-length cDNA in pET16b, N-terminal His tag (6x in Results, 5x in Methods), E. coli BLR21, Ni-NTA; primer begins MAMIEQ) MAMIEQRPKTKIVCTLGPASRSVPMVEKLLRAGMNVARFNFSHGSHEYHQETLDNLHQAMLNTGILCAVMLDTKGPEIRTGFLKDGKPIQLKQGQEITISTDYDLKGDENTICMSYKKLAVDVNPGMVILCADGTISLLVLSCDKENGTVRCRCENSAMLGERKNVNLPGVVVDLPTLTEKDKEDIMQWGVPNQIDMIALSFVRKGSDLVQVRKLLGKHAKNILLMSKVENQEGVANFDDILVNSDAFMIARGDLGMEIPIEKIFLAQKVMIYKCNIQGKPVVTATQMLESMIKSPRPTRAEATDVANAVLDGTDCVMLSGETAAGAYPELAVRTMAKICVEAESTLDYGDVFKRIMLYSPVPMSPLESLASSAVRTANSARATLIMVLTRGGSTARLVAKYRPGMPILSVVVPEIKTDFFDWSCSDESPARHSLIFRGLIPVLYAGSARASHDESTEEAIEFATQYGKEKELCKTGDSVVALLRVGNASVIKILTVK	30 µM	3.05 s⁻¹	760 µM	3.05 s⁻¹	–
cPK3 (Arabidopsis thaliana) (protein, printed locus At5g56350 duplicates cPK2 (apparent misprint); primer begins MSNIDIE, unlike cPK2; full-length cDNA in pET16b, N-terminal His tag (6x/5x), E. coli BLR21, Ni-NTA) MSNIDIEGILKELPNDGRTPKTKIVCTLGPASRSVTMIEKLLKAGMNVARFNFSHGSHEYHQETLDNLRTAMQNTGILAAVMLDTKGPEIRTGFLKDGNPIQLKEGQEITITTDYDIKGDEKTISMSYKKLPVDVKPGNTILCADGSISLAVVSCDPNAGTVICRCENTAMLGERKNVNLPGVVVDLPTLTDKDVEDILKWGVPNNIDMIALSFVRKGSDLVNVRKVLGSHSKSIMLMSKVENQEGVLNFDEILRETDAFMVARGDLGMEIPIEKIFLAQKMMIYKCNLAGKPVVTATQMLESMIKSPRPTRAEATDVANAVLDGTDCVMLSGESAAGAYPEIAVKTMAKICIEAESSLDYNTIFKEMIRATPLPMSTLESLASSAVRTANKAKAKLIIVLTRGGTTAKLVAKYRPAVPILSVVVPVFTSDTFNWSCSDESPARHSLIYRGLIPVLGEGSAKATDSESTEEIIESALKSATEKGLCNHGDAVVALHRIGAASVIKICVVK	140 µM	2.4 s⁻¹	170 µM	2.4 s⁻¹	–
cPK4 (Arabidopsis thaliana) (protein, full-length cDNA in pET16b, N-terminal His tag (6x in Results, 5x in Methods), E. coli BLR21, Ni-NTA; primer begins MHSSHL) MHSSHLLLEEPIRMTSILEPSKSSFFPALTKIVGTLGPKSRSVEVIAGCLKAGMSVARFDFSWCDADYHQETLENLKIAVKSTKKLCAVMLDTVGPELQVINKTEKAISLKADGLVTLTPSQDQEASSEVLPINFDGLAKAVKKGDTIFVGQYLFTGSETTSVWLEVEEVKGDDVICISRNAATLGGPLFTLHVSQVHIDMPTLTEKDKEVISTWGVQNKIDFLSLSYCRHAEDVRQARELLNSCGDLSQTQIFAKIENEEGLTHFDEILQEADGIILSRGNLGIDLPPEKVFLFQKAALYKCNMAGKPAVLTRVVDSMTDNLRPTRAEATDVANAVLDGSDAILLGAETLRGLYPVETISTVGRICCEAEKVFNQDLFFKKTVKYVGEPMTHLESIASSAVRAAIKVKASVIICFTSSGRAARLIAKYRPTMPVLSVVIPRLTTNQLKWSFSGAFEARQSLIVRGLFPMLADPRHPAESTSATNESVLKVALDHGKQAGVIKSHDRVVVCQKVGDASVVKIIELED	70 µM	4.0 s⁻¹	170 µM	4.0 s⁻¹	–
cPK5 (Arabidopsis thaliana) (protein, full-length cDNA in pET16b, N-terminal His tag (6x in Results, 5x in Methods), E. coli BLR21, Ni-NTA; primer begins MHSSHL) MHSSHLLLEEPIRMASILEPSKSSFFPALTKIVGTLGPKSRSVEALSGCLKAGMSVARFDFSWGDADYHQETLDNLKVAVRSTKKLCAVMLDTVGPELQVINKSEKAITLKADGLVTLTPNQDQEASSEVLPINFNGLAKAVKKGDTIFVGQYLFTGSETTSVWLEVDEVKGDDVICLSRNAATLAGSLFTLHSSQVHIDLPTLTEKDKEVISTWGVQNKIDFLSLSYCRHAEDVRQTREMLKKLGDLSQTQIFAKIENVEGLTHFDEILQEADGIILSRGNLGIDLPPEKVFLFQKAALYKCNMAGKPAVLTRVVDSMTDNLRPTRAEATDVANAVLDGSDAILLGAETLRGLYPVETISTVGRICAEAEKVFNQDLYFKKTVKYVGEPMTHLESIASSAVRAAIKVKASVIICFTSSGRAARLIAKYRPTMPVISVVIPRVKTNQLKWSFSGAFEARQSLIVRGLFPMLADPRHPAESTSATNESVLKVALDHGKHAGVIKSHDRVVVCQKVGDASVVKIIELED	340 µM	6.68 s⁻¹	50 µM	6.68 s⁻¹	–
